The target in experiment [1] is mouse ACVR2A (mouse, UniProt P27038 20-135, limits assumed). The experiment is described as follows: ELISA. Summed up: (§1)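 Binding signal was read by ELISA after ACVR2A-specific monoclonal antibodies were tested against human ACVR2A and mouse ACVR2A, with human Fc as the negative control.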
Target sequence in this assay (P27038 20-135 limits assumed): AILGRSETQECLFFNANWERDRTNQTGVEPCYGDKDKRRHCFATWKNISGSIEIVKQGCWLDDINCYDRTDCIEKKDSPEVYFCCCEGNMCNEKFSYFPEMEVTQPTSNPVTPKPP
A general note: In an ELISA, binding on a coated surface is turned into a signal by an enzyme label.

In experiment [2] the target is T1, human ACVR2A (human, UniProt P27037 20-135, limits assumed).
T1 construct: also called activin receptor, type II A
The experiment is described as follows: ELISA. Summed up:
as §1
T1 sequence (P27037 20-135 limits assumed): as the sequence (P27038 20-135 limits assumed) above, with R20K, I73V counted along it

Experiment [3] addresses T2, biotinylated goat anti-human kappa light chain.
T2 construct: positive control of the ELISA
The experiment is described as follows: ELISA, positive control. Summed up:
as §1

Experiment [4] has as its target T3, human ACVR2A (human, UniProt P27037 20-135, limits assumed).
T3 construct: coated antigen of the initial ELISA; also called activin receptor, type II A
The experiment is described as follows: ELISA. The essentials:
as §1
T3 sequence (P27037 20-135 limits assumed): as the sequence (P27038 20-135 limits assumed) above, with R20K, I73V counted along it

The target in experiment [5] is T4, mouse ACVR2A (mouse, UniProt P27038 20-135, limits assumed).
T4 construct: coated antigen of the initial ELISA
The experiment is described as follows: ELISA. Summed up: as §1
T4 sequence (P27038 20-135 limits assumed): as the sequence (P27038 20-135 limits assumed) above

The target in experiment [6] is T5, biotinylated goat anti-human kappa light chain.
T5 construct: positive control of the ELISA
The experiment is described as follows: ELISA, positive control. Summed up: as §1
This is another data set of the same source.

Experiment [7] has as its target T6, Human ACVR2A (human, UniProt P27037 20-135, limits assumed).
T6 construct: also called activin receptor, type II A
The experiment is described as follows: ELISA. Summed up:
as §1

Another experiment concerns the target T7, Goat anti-Human Kappa.
T7 construct: Positive control of the ELISA; also called biotinylated goat anti-human kappa light chain
The experiment is described as follows: ELISA, positive control. Summed up: as §1
Also: test concentration or dose not given here.

T6 sequence (P27037 20-135 limits assumed): as the sequence (P27038 20-135 limits assumed) above, with R20K, I73V counted along it

B1: 374_A10 (antibody, V domains shown)
VH: EVQLLESGGGLVQPGGSLRLSCAASGFTFSSYGMHWVRQAPGKGLEWVSGINYNGGYTSYADSVKGRFTISRDNSKNTLYLQMNSLRAEDTAVYYCARAATWHDTHLDYWGQGTLVTVSS
VL: DIQMTQSPSSLSASVGDRVTITCRASQSILSYVNWYQQKPGKAPKLLIYAATSRASGVPSRFSGSGSGTDFTLTISSLQPEDFATYYCQQSYDTPLTFGGGTKVEIK
notes: Group II
In the case of B1, the optical density with mouse ACVR2A [1] came out at 3.59 OD; with human ACVR2A [2], 3.56 OD; in experiment [3], 3 OD.

B2: 368_C02 (antibody, V domains shown)
VH: EVQLLESGGGLVQPGGSLRLSCAASGFTFDDYSMNWVRQAPGKGLEWVANINYNGGYKGYADSVKGRFTISRDNSKNTLYLQMNSLRAEDTAVYYCARGANWHDTHLDYWGQGTLVTVSS
VL: DIQMTQSPSSLSASVGDRVTITCRASQSISTYVNWYQQKPGKAPKLLIYAATSLASGVPSRFSGSGSGTDFTLTISSLQPEDFATYYCQQSYSTPLTFGGGTKVEIK
notes: Group III
Consider B2, for which the optical density with human ACVR2A [4] worked out at 1.38 OD; with mouse ACVR2A [5], 1.49 OD; in experiment [6], 3.51 OD.

B3: 365_A05 (antibody, V domains shown)
VH: EVQLLESGGGLVQPGGSLRLSCAASGFTFSSYGMHWVRQAPGKGLEWVSSINYNGGYTSYADSVKGRFTISRDNSKNTLYLQMNSLRAEDTAVYYCARAATWHDTHLDYWGQGTLVTVSS
VL: not shown
notes: Group II
In the case of B3, the results for the optical density (in the experiment with mouse ACVR2A [1]; in the experiment with human ACVR2A [2]; in experiment [3]) were 2.23 OD, 2.34 OD and 3.45 OD, respectively.

B4: 376_F01 (antibody, V domains shown)
VH: EVQLLESGGGLVQPGGSLRLSCAASGFTFSDYSMNWVRQAPGKGLEWVAGINYNGGYKSYADSVKGRFTISRDNSKNTLYLQMNSLRAEDTAVYYCARGANWHDTALDYWGQGTLVTVSS
VL: not shown
notes: Group III
In the case of B4, the optical density in the experiment with human ACVR2A [4] was determined as 2.77 OD; in the experiment with mouse ACVR2A [5] it was 3.02 OD; in experiment [6] it was 3.18 OD.

B5: 375_H07 (antibody, V domains shown)
VH: EVQLLESGGGLVQPGGSLRLSCAASGFTFSSYSMNWVRQAPGKGLEWVAGINYNGGYTSYADSVKGRFTISRDNSKNTLYLQMNSLRAEDTAVYYCARGANWHDTALDYWGQGTLVTVSS
VL: DIQMTQSPSSLSASVGDRVTITCRASQSILSYLNWYQQKPGKAPKLLIYAATSLASGVPSRFSGSGSGTDFTLTISSLQPEDFATYYCQQSYSSPLTFGGGTKVEIK
notes: Group III
In the case of B5, the optical density came to 3.3 OD with human ACVR2A [4], 3.29 OD in the experiment with mouse ACVR2A [5] and 3.27 OD in experiment [6].

B6: 376_C04 (antibody, V domains shown)
VH: EVQLLESGGGLVQPGGSLRLSCAASGFTFSSYGMNWVRQAPGKGLEWVSNINYNGGYTGYADSVKGRFTISRDNSKNTLYLQMNSLRAEDTAVYYCARGANWHDTALDYWGQGTLVTVSS
VL: DIQMTQSPSSLSASVGDRVTITCRASQSILSYVNWYQQKPGKAPKLLIYAVTSRHSGVPSRFSGSGSGTDFTLTISSLQPEDFATYYCQQSYDNPLTFGGGTKVEIK
notes: Group III
With B6, the optical density turned out to be 3.63 OD in the experiment with human ACVR2A [4], 3.65 OD with mouse ACVR2A [5] and 3.4 OD in experiment [6].

B7: 376_B10 (antibody, V domains shown)
VH: EVQLLESGGGLVQPGGSLRLSCAASGFTFSDYSMNWVRQAPGKGLEWVAGINYNGGYKGYADSVKGRFTISRDNSKNTLYLQMNSLRAEDTAVYYCARGANWHDTALDYWGQGTLVTVSS
VL: DIQMTQSPSSLSASVGDRVTITCRASQSILSYLNWYQQKPGKAPKLVIYAATSLASGVPSRFSGSGSGTDFTLTISSLQPEDFATYYCQQSYSTPLTFGGGTKVEIK
notes: Group III
Turning to B7, the optical density with human ACVR2A [4] is 3.6 OD; with mouse ACVR2A [5], 3.67 OD; in experiment [6], 3.46 OD.

B8: 365_C03 (antibody, V domains shown)
VH: EVQLLESGGGLVQPGGSLRLSCAASGFTFSSYGMHWVRQAPGKGLEWVAGINYNSGYKGYADSVKGRFTISRDNSKNTLYLQMNSLRAEDTAVYYCARAANWHDTHLDYWGQGTLVTVSS
VL: DIQMTQSPSSLSASVGDRVTITCRASQSILTYVNWYQQKPGKAPKLVIYATTSLASGVPSRFSGSGSGTDFTLTISSLQPEDFATYYCQQSYNTPLTFGGGTKVEIK
notes: Group I
Take B8: the figures for the optical density (in the experiment with mouse ACVR2A [1]; in the experiment with human ACVR2A [2]; in experiment [3]) were 2.65 OD, 2.26 OD and 3.5 OD, respectively.

B9: 365_B04 (antibody, V domains shown)
VH: EVQLLESGGGLVQPGGSLRLSCAASGFTFSSYGMHWVRQAPGKGLEWVASINYNSGYTSYADSVKGRFTISRDNSKNTLYLQMNSLRAEDTAVYYCARAANWHDTALDYWGQGTLVTVSS
VL: DIQMTQSPSSLSASVGDRVTITCRASQSILTYLNWYQQKPGKAPKLLIYAATSRHSGVPSRFSGSGSGTDFTLTISSLQPEDFATYYCQQSDESPLTFGGGTKVEIK
notes: Group I
Consider B9, for which the optical density amounted to 2.18 OD with mouse ACVR2A [1], 1.99 OD with human ACVR2A [2] and 3.12 OD in experiment [3].

B10: 365_B12 (antibody, V domains shown)
VH: EVQLLESGGGLVQPGGSLRLSCAASGFTFSDYGMHWVRQAPGKGLEWVSGINYNGGYTSYADSVKGRFTISRDNSKNTLYLQMNSLRAEDTAVYYCARAATWHDTHLDYWGQGTLVTVSS
VL: DIQMTQSPSSLSASVGDRVTITCRASQSISTYVNWYQQKPGKAPKLLIYAVTSLHSGVPSRFSGSGSGTDFTLTISSLQPEDFATYYCQQSYDNPLTFGGGTKVEIK
notes: Group II
On to B10, for which the optical density came to 2.29 OD in the experiment with mouse ACVR2A [1], 2.33 OD with human ACVR2A [2] and 3.43 OD in experiment [3].

B11: 376_E11 (antibody, V domains shown)
VH: EVQLLESGGGLVQPGGSLRLSCAASGFTFSSYSMNWVRQAPGKGLEWVSGINYNGGYTSYADSVKGRFTISRDNSKNTLYLQMNSLRAEDTAVYYCARGANWHDTALDYWGQGTLVTVSS
VL: DIQMTQSPSSLSASVGDRVTITCRASQSILTYVNWYQQKPGKAPKLVIYAATSRASGVPSRFSGSGSGTDFTLTISSLQPEDFATYYCQQSYELPLTFGGGTKVEIK
notes: Group III
As for B11, the optical density is 3.68 OD with human ACVR2A [4], 3.65 OD with mouse ACVR2A [5] and 3.47 OD in experiment [6].

B12: 376_C08 (antibody, V domains shown)
VH: EVQLLESGGGLVQPGGSLRLSCAASGFTFDSYSMNWVRQAPGKGLEWVAGINYNSGYTGYADSVKGRFTISRDNSKNTLYLQMNSLRAEDTAVYYCARGANWHDTHLDYWGQGTLVTVSS
VL: not shown
notes: Group III
Take B12: the optical density amounted to 3.61 OD in the experiment with human ACVR2A [4], 3.63 OD with mouse ACVR2A [5] and 3.46 OD in experiment [6].

B13: 376_E02 (antibody, V domains shown)
VH: EVQLLESGGGLVQPGGSLRLSCAASGFTFSSYSMNWVRQAPGKGLEWVAGINYNGGYKGYADSVKGRFTISRDNSKNTLYLQMNSLRAEDTAVYYCARGANWHDTALDYWGQGTLVTVSS
VL: DIQMTQSPSSLSASVGDRVTITCRASQSILSYVNWYQQKPGKAPKLVIYAATSRHSGVPSRFSGSGSGTDFTLTISSLQPEDFATYYCQQSDNTPLTFGGGTKVEIK
notes: Group III
As to B13, the optical density with human ACVR2A [4] was determined as 3.3 OD; in the experiment with mouse ACVR2A [5], 3.38 OD; in experiment [6], 3.41 OD.

B14: 369_A03 (antibody, V domains shown)
VH: EVQLLESGGGLVQPGGSLRLSCAASGFTFSSYGMNWVRQAPGKGLEWVSNINYNGGYTGYADSVKGRFTISRDNSKNTLYLQMNSLRAEDTAVYYCARSANWHDTALDYWGQGTLVTVSS
VL: DIQMTQSPSSLSASVGDRVTITCRASQSILTYLNWYQQKPGKAPKLLIYAVTSRHSGVPSRFSGSGSGTDFTLTISSLQPEDFATYYCQQGYDLPLTFGGGTKVEIK
On to B14, for which the optical density with Human ACVR2A [7] came to 0.451 OD; in the experiment with Goat anti-Human Kappa, 3.17 OD.

B15: 376_A03 (antibody, V domains shown)
VH: EVQLLESGGGLVQPGGSLRLSCAASGFTFSSYGMNWVRQAPGKGLEWVAGINYNGGYTGYADSVKGRFTISRDNSKNTLYLQMNSLRAEDTAVYYCARGANWHDTALDYWGQGTLVTVSS
VL: DIQMTQSPSSLSASVGDRVTITCRASQSILTYLNWYQQKPGKAPKLLIYAATSRASGVPSRFSGSGSGTDFTLTISSLQPEDFATYYCQQSYSTPLTFGGGTKVEIK
notes: Group III
Take B15: the optical density is 3.61 OD in the experiment with human ACVR2A [4], 3.65 OD with mouse ACVR2A [5] and 3.23 OD in experiment [6].

B16: 365_B08 (antibody, V domains shown)
VH: EVQLLESGGGLVQPGGSLRLSCAASGFTFDSYGMNWVRQAPGKGLEWVSNINYNSGYKGYADSVKGRFTISRDNSKNTLYLQMNSLRAEDTAVYYCARAATWHDTHLDYWGQGTLVTVSS
VL: DIQMTQSPSSLSASVGDRVTITCRASQSIVTYLNWYQQKPGKAPKLLIYAATSRASGVPSRFSGSGSGTDFTLTISSLQPEDFATYYCQQSYSSPLTFGGGTKVEIK
notes: Group II
In the case of B16, the values for the optical density (with mouse ACVR2A [1]; with human ACVR2A [2]; in experiment [3]) were 1.26 OD, 1.14 OD and 3.04 OD, respectively.

B17: 376_B03 (antibody, V domains shown)
VH: EVQLLESGGGLVQPGGSLRLSCAASGFTFSSYSMNWVRQAPGKGLEWVAGINYNSGYKSYADSVKGRFTISRDNSKNTLYLQMNSLRAEDTAVYYCARGANWHDTALDYWGQGTLVTVSS
VL: DIQMTQSPSSLSASVGDRVTITCRASQSILSYVNWYQQKPGKAPKLVIYAVTSRHSGVPSRFSGSGSGTDFTLTISSLQPEDFATYYCQQSYDSPLTFGGGTKVEIK
notes: Group III
As for B17, the results for the optical density (with human ACVR2A [4]; in the experiment with mouse ACVR2A [5]; in experiment [6]) were 3.68 OD, 3.67 OD and 3.52 OD, respectively.

B18: 376_D07 (antibody, V domains shown)
VH: EVQLLESGGGLVQPGGSLRLSCAASGFTFDSYSMNWVRQAPGKGLEWVSGINYNGGYTSYADSVKGRFTISRDNSKNTLYLQMNSLRAEDTAVYYCARGANWHDTHLDYWGQGTLVTVSS
VL: not shown
notes: Group III
For B18, the results for the optical density (with human ACVR2A [4]; with mouse ACVR2A [5]; in experiment [6]) were 3.38 OD, 3.44 OD and 3.44 OD, respectively.

These data come from patent US20210380703A1 (RIGEL PHARMACEUTICALS, published 2021).
